The record followed here is patent publication US7700107B2, “Synthetic immunogenic but non-amyloidogenic peptides homologous to amyloid β for induction of an immune response to amyloid β and amyloid deposits” (New York University, priority 2000, dated 2010).

The nature of data set [1]: Secondary structure by circular dichroism (CD). It counts as physicochemical. As for the experimental part:
Secondary structure (α-helix, β-sheet, and random coil) of the peptides was evaluated by circular dichroism (CD) as described previously (Soto et al., 1998 and Soto et al., 1996). Results are expressed as molar ellipticity in units of deg cm^2 dmol^−1, and the data was analyzed by the Lincomb and CCA algorithms (Perczel et al., 1992) to obtain the percentages of different types of secondary structure.
The experimental procedure for circular dichroism is performed according to Golabek et al., (1996) and Soto et al. (1996 and 1998) as follows: CD spectra of solutions containing synthetic peptides (1-5 μM in 300 μl of 10 mM sodium phosphate, pH 7.2) is recorded in a Jasco J-720 spectropolarimeter at 25° C. using a 0.1 cm path-length cell with double distilled, deionized water and TFE (spectroscopy grade) being used as solvents. Calibration of the instrument is performed with an aqueous solution of d-(+)-10-camphorsulfonic acid. Spectra is recorded at 1 nm intervals over the wavelength range 180 to 260 nm and buffer spectra obtained under identical conditions is subtracted.
A general note: Circular dichroism is the unequal absorption of left and right circularly polarised light.

Data set [2] in a line: Solubility of freshly prepared peptide solution (in nanopure H2O). The conditions noted are these: at 100 μM. Format: physicochemical.
Data set [3] has as its system human neuroblastoma cell line (SK—N—SH). The experiment in a line: Neurotoxicity, MTT assay. It counts as cell-based. The conditions noted are these: for Toxicity to SK—N—SH cells (MTT): 2 and 6 days, vs vehicle; for Aggregates visible under the microscope in culture wells: during the incubation period, 10-100 μM. How it is done: Briefly, cells were plated at 10,000 cells/100 μl culture medium per well in flat bottom, 96 well microtiter plates. The cells were allowed to attach to the plate overnight in an incubator (37° C., 5.0% CO2), and then 10 μl of freshly prepared peptide solution (in nanopure H2O) was added. […] Subsequent steps were as described in the assay protocol.
Data Analysis: The cell culture data was analyzed by one-way ANOVA, followed by a Dunnett's test for post hoc analysis (GraphPad Prism 3.0). An unbiased stereological image analysis system (Bioquant, R&M Biometrics Inc., Nashville, Tenn.) was used to determine the amyloid burden in 6E10 stained brain sections. The data for the amyloid burden and the levels of soluble Aβ within the brain were analyzed by a Student's t-test, two-tailed.
(§1) The experiments were performed as described in Example 1.
Data Analysis: The cell culture data was analyzed by one-way ANOVA, followed by a Newman Keuls' test for post hoc analysis (GraphPad Prism 3.0).

Data set [4] in a line: Thioflavin T fluorometric assay of amyloid fibril formation in vitro. As to conditions: incubation at 37° C., up to at least 15 days. Format: physicochemical. As for the experimental part:
Studies of amyloid fibril formation in vitro can be performed using published protocols from the laboratory of the present inventors (Castaño et al., 1995; Wisniewski et al., 1991; Wisniewski et al., 1993 and Wisniewski et al., 1994). […] In vitro fibrillogenesis was evaluated by a fluorometric assay based on the fluorescence emission by thioflavine T, as previously described by the laboratory of the present inventors (Soto et al., 1998 and Jameson et al., 1998). Thioflavine T binds specifically to amyloid and this binding procedures a shift in its emission spectrum and a fluorescent enhancement proportional to the amount of amyloid formed (LeVine et al. 1993).
as §1

On to “Aβ1-42: amyloid β peptide, sequence 1-42; control peptide”, for which the “alpha (secondary structure by CD)” value in data set [1] (Time 0 hr) worked out at 9%; in data set [1] (Time 24 hr), 9%; in data set [1] (Time 96 hr), 5%. Moreover, the “beta-sheet (secondary structure by CD)” value in data set [1] (Time 0 hr) worked out at 36%; in data set [1] (Time 24 hr), 40%; in data set [1] (Time 96 hr), 55%. Also, the “random (secondary structure by CD)” value stood at 55% in data set [1] (Time 0 hr), 51% in data set [1] (Time 24 hr) and 40% in data set [1] (Time 96 hr). Besides, in data set [2], the Solubility entry is reported as “only partially soluble”. The “Toxicity to SK—N—SH cells (MTT)” value is given as “toxic” in data set [3] (Example 1, FIGS. 2A and 2B); “toxic” in data set [3] (Example 2, FIGS. 6A and 6B). Besides, the “Aggregates visible under the microscope in culture wells” value in data set [3] (Example 1) and in data set [3] (Example 2) was “aggregates were visible” in each case.

Consider “Aβ1-40: amyloid β peptide, sequence 1-40; control peptide”, for which the “Toxicity to SK—N—SH cells (MTT)” value in data set [3] (Example 1, FIGS. 2A and 2B) was “toxic”; in data set [3] (Example 2, FIGS. 6A and 6B) it was “toxic”. In data set [4] (Example 2, FIG. 5), the “Fibril formation (thioflavin T)” value is recorded as “gradually formed fibrils over time”.

Turning to “Aβ1-30-NH2(EE18,19): modified Aβ1-30, amidated, Glu at positions 18 and 19 (SEQ ID NO:12)”, in data set [4] (Example 2, FIG. 5), the “Fibril formation (thioflavin T)” value is on record as “did not form fibrils”.

Regarding “Aβ1-30-NH2(DD18,19): modified Aβ1-30, amidated, Asp at positions 18 and 19 (SEQ ID NO:13)”, the “Fibril formation (thioflavin T)” value in data set [4] (Example 2, FIG. 5) is “did not form fibrils”.

As to “Aβ1-30-NH2: first thirty residues of Aβ1-42 (SEQ ID NO:1), amidated at the C-terminus; control peptide”, the “alpha (secondary structure by CD)” value in data set [1] (Time 0 hr) is 5%; in data set [1] (Time 24 hr), 8%; in data set [1] (Time 96 hr) it was 7%. Also, the “beta-sheet (secondary structure by CD)” value is on record as 37% in data set [1] (Time 0 hr), 36% in data set [1] (Time 24 hr) and 49% in data set [1] (Time 96 hr). Moreover, the entries for the “random (secondary structure by CD)” value in data set [1] (Time 0 hr), in data set [1] (Time 24 hr) and in data set [1] (Time 96 hr) were 58%, 56% and 44%, respectively. Besides, the “Fibril formation (thioflavin T)” value in data set [4] (Example 1, FIG. 1) is on record as “gradually formed fibrils over time”; in data set [4] (Example 2, FIG. 5) it was “gradually formed fibrils over time”.
